According to PMC8946000:

Columns and labels:
[1] = target: CT-MRAP2, C-terminal domain of MRAP2 fused to a poly-his tag (human) (UniProt Q96G30); test: native gel or EMSA; blue native PAGE of 20 μg purified C-terminal MRAP2 domain, 3% to 16% Bis-Tris gel, 0 °C, anti-His blot; molecular weights only approximate
[2] = target: CT-MRAP2, C-terminal domain of MRAP2 fused to a poly-his tag (human) (UniProt Q96G30); test: SDS-PAGE; purified His-tagged CT-MRAP2 resolved by SDS-PAGE under denaturing conditions, anti-His blot

stoichiometry N [1]: 2
stoichiometry N [2]: 2
Substance: CT-MRAP2, C-terminal domain of MRAP2 fused to a poly-his tag (from UniProt Q96G30 76-205) (domain or fragment)
